# Results as given in paper PMC4691841.
# Tests used:
# Test in all cases: ITC
# histone H3(1-10) peptide = histone H3(1-10) peptide (UniProt P68431)
# H3(1-15)T3ph peptide = H3(1-15)T3ph peptide (UniProt P68431)
# H3(1-15)K4me3 peptide = H3(1-15)K4me3 peptide (UniProt P68431)
# H3(1-10)R2me2a peptide = H3(1-10)R2me2a peptide (UniProt P68431)
# Sequence of UHRF1 PHD finger (PHD_(UHRF1)) (Q96T88 298-367): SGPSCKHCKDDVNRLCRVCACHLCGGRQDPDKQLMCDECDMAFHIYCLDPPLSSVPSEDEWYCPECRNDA
Substance,Kd (histone H3(1-10) peptide),Kd (H3(1-15)T3ph peptide),Kd (H3(1-15)K4me3 peptide),Kd (H3(1-10)R2me2a peptide)
PHD_(UHRF1) D347A mutant (from UniProt Q96T88-2 311-380) (domain or fragment),95 µM,–,–,–
PHD_(UHRF1) D350A mutant (from UniProt Q96T88-2 311-380) (domain or fragment),47 µM,–,–,–
UHRF1 PHD finger (PHD_(UHRF1)) (from UniProt Q96T88-2 311-380) (domain or fragment),–,> 500 µM,7.3 µM,44.9 µM
